Reference: US8956838B2, “Carboxyl esterase polypeptides” (B.R.A.I.N., priority 2006, dated 2015)

Experiments:
Format in all cases: biochemical
[1] = Substrate specificity on pNP-substrates with importance for pharmaceutical products; conditions: 30 minute, 40° C., pH 7.5
Procedure: The substrate range of the two enzymes was determined using pNP esters of the following: benzoate, 2-(4-isobutylphenyl)propanoate (Ibuprofen), 2-phenylpropanoate, 3-phenylbutanoate, cyclohexanoate, 2-(3-benzoylphenyl)propanoate, 2-naphthoate, 1-naphthoate, adamantanoate and 2-(6-methoxynaphthalene-2-yl)propanoate (Naproxen). Activity was determined at 410 nm after 30 minute incubation at 40° C. The reaction mixture was 950 μl buffer (100 mM Tris, pH 7.5), 50 μl substrate (5 mg/ml in DMSO) and 1 μg enzyme.

[2] = Enantioselectivity, GC analysis of hydrolysis of acetic acid esters; conditions: for conversion %: ^2 only complete conversion could be measured
Procedure: To assay the activity of the enzymes on a range of acetic acid esters gas chromatography was used. The samples were analyzed for the production of chiral alcohols by the gas chromatograph GC-17A (Shimadzu, Duisburg, Germany) equipped with FID detector and CP-Chirasil-DEX CB (Chrompack (Middelburg, Netherlands), 25 m×0.25 mm ID) at a helium flow of 1.3 ml/min. The temperature programme included: 5 min at 60° C., followed by an increase of 5° C. per min until 190° C. was reached. For the GC analysis, activity-tests were run in 1 M Tris buffered solutions and using 10 mM substrates dissolved in DMSO as 0.1 M stock solutions. 2 μg of the enzyme were added and tests incubated over night before the corresponding alcohols could be extracted by treatment with acetic acid ethyl ester and analyzed by GC.

[3] = Determination of pH optimum by titration; conditions: incubation for up to 48 hours, up to pH 12 (data not shown)
Procedure: The pH optimum for the enzymes was determined using tributyrin as substrate. The incubation conditions were 20 ml buffer (2.5 mM phosphate buffer [pH 4-7], 2.5 mM Tris/HCl buffer [pH 7-11] or 2.5 mM glycine buffer [pH 9-11], supplemented with 100 mM NaCl) stirred at a constant temperature of 37° C. The esterase substrate tributyrin (final concentration of 2 mM) was added to 5 ml of the corresponding buffer at 37° C., emulsified and added to the whole preparation. This substrate emulsion was held constant at the correct pH automatically by the titrator (718 STAT Titrino; Metrohm, Herisau, Switzerland) for 2 min and this served as the control. […]

[4] = Determination of thermal stability
Procedure: To assay the thermostability of the enzymes they were incubated at different temperatures for one hour and the residual activity assayed at 10 minute intervals. Residual activity was measured using pNP-caproate as substrate as described above.

[5] = Effect of bivalent cations and EDTA on catalytic activity
[6] = Titration assay with triglycerides; conditions: 10 mM, 37° C., pH 7.0
Procedure: Enzyme activities on the substrates triacetin, tripropionin, tributyrin, tricaprylene, trilaurin and vinyl-substrates (vinyl-acetate, ˜propionate, ˜butyrate, ˜caproate, ˜caprylate and ˜laurate) were determined using a standard titration assay with minor modifications. Tests were performed with a Methrom 718 STAT potentiometric titrator (Herisau, Switzerland) and by using 10 mM NaOH for titration. The substrates at 10 mM concentration were emulsified in 20 ml reaction buffer containing 2 mM Tris/HCl pH 7.0. After addition of 7.5 μg of the purified enzyme the NaOH consumption was recorded at a reaction temperature of 37° C. One unit was defined as the amount of enzyme that released […] of fatty acid per min.

[7] = Solvent stability, residual activity; conditions: for Residual activity after 1 h incubation in the presence of solvent: 1 h at 30° C., measured at 45° C.; for activity in the presence of solvent, levels up to: both concentrations (15% and 30% v/v)
Procedure: The stability of the enzymes was determined in the presence of the following solvents: DMSO, isopropanol, methanol, dimethylformamide, acetone and acetonitrile. The enzymes were incubated for 1 hour at 30° C. in the presence of either 15% (v/v) or 30% (v/v) of the solvents and the residual activity was measured at 45° C. The substrate used was pNP-butyrate.

[8] = Enzyme activity with pNP-acylesters of different chain length; conditions: 4 mM, 45° C., pH 7.2
Procedure: Enzyme activity tests were performed by incubating the enzyme with 4 mM substrate at 45° C. in 100 mM Tris-HCl buffer at pH 7.2, unless otherwise indicated. The reaction was measured at 410 nm. One unit is defined as the amount of enzyme catalyzing the appearance of 1 μmol of free p-nitrophenol/min. Enzyme activity against pNP-acylesters (butyrate, valerate, caproate, octanoate, decanoate and palmitate) was tested under the above conditions. […] The enzyme according to SEQ ID NO: 6 converted pNP-caproate with a specific activity of 80.0 U/mg.

[9] = substrate Acetic acid ester of tetrahydronaphthylamin
[10] = substrate acetic acid ester of (+/−)-1-octin-3-ol, 10 mM, over night
[11] = substrate acetic acid ester of cis-1,2-cyclohexandiol, values marked ^1: substrate conversion after 12 h
[12] = substrate acetic acid ester of phenylethylamin
[13] = substrate cis-3,5-diacetoxy-1-cyclopenten
[14] = substrate isopropylidenglycerolacetate (rac.), values marked ^1: substrate conversion after 12 h

B1: EstA3: recombinant enzyme having carboxyl esterase activity, amino acid sequence SEQ ID NO: 2, family VIII of bacterial lipolytic enzymes (protein)
chain: MSAEELGFLPDRLARISDHIQTNYLDNGKLPFASLLIGRGDDIALQWSSGVADDAIFRIASMTKPVTSVAFMQLVEQGKVALTDPVAKYIPEFAKLGVFVAGGGNIPFVSRPPTMPMRIVDVLRHTTGFTYSFQERSNIDAAYRKTDVESWTRSTSQSFIDTLAEIPLEFDPGTQWNYSVSTDVLGILIERISGQSLPDYFRDHIFAPLGMVDTCFTVPADKAARIPQCFAFDPATKMKLFDEAGASSLWTKGWSFNSGGGGLASSVADYHRFCRMLLNGGALDGIQIISPKTLELMTANHLPGGQDLTQMSKSLFSEAEMAGIGFGLGFATTIDSVATLTPCSTGDFYWGGMYSTAFFVDPVEDIIMIFMTQLMPSSTYPVRREIKTMIYSALAA
modifications: metagenomic sequence
specific activity ([1]; pNP-ester of 1-naphthoate): 0 U/mg | specific activity ([1]; pNP-ester of 2-(3-benzoylphenyl) propanoate): 26.7 U/mg | specific activity ([1]; pNP-ester of 2-(4-isobutylphenyl) propanoate (Ibuprofen)): 7.2 U/mg | specific activity ([1]; pNP-ester of 2-(6-methoxy-naphthalen-2-yl) propanoate (Naproxen)): 26.7 U/mg | specific activity ([1]; pNP-ester of 2-naphthoate): 0 U/mg | specific activity ([1]; pNP-ester of 2-phenylpropanoate): 21.0 U/mg | specific activity ([1]; pNP-ester of 3-phenylbutanoate): 31.6 U/mg | specific activity ([1]; pNP-ester of adamantanoate): 0 U/mg | specific activity ([1]; pNP-ester of benzoate): 9.4 U/mg | specific activity ([1]; pNP-ester of cyclohexanoate): 50.0 U/mg | hydrolysis, in words ([2]; acetic acid ester of R-(+)-3-chlor-1-phenyl-1-propanol): capable of hydrolyzing | hydrolysis, in words ([2]; acetic acid ester of rac-1-octin-3-ol): capable of hydrolyzing | hydrolysis, in words ([2]; acetic acid ester of trimethylsilylbutinol): capable of hydrolyzing | conversion % of 1.e [2, 9]: 0% | conversion % of 2.e [2, 9]: 0% | ee % ([2]; substrate acetic acid ester of (+/−)-1-octin-3-ol): 12% | conversion % of 1.e [2, 10]: 24% | conversion % of 2.e [2, 10]: 18% | conversion % ([2]; substrate acetic acid ester of R-(+)-3-chlor-1-phenyl-1-propanol): 6^2% | conversion % of 1.e [2, 11]: 0% | conversion % of 2.e [2, 11]: 0% | conversion % of 1.e [2, 12]: 0% | conversion % of 2.e [2, 12]: 0% | conversion % of 2.e ([2]; substrate acetic acid ester of trans-1,2-cyclohexandiol): 0% | conversion % of 1.e ([2]; substrate acetic acid ester of trans-1,2-cyclohexandiol, in text: conversion of the preferred enantiomer): 0% | conversion % ([2]; substrate acetic acid ester of trimethylsilylbutinol): 45^2% | conversion % of 2.e [2, 13]: 0% | ee % [2, 13]: 100% | conversion % of 1.e ([2]; substrate cis-3,5-diacetoxy-1-cyclopenten, conversion for the preferred enantiomer): 24% | conversion % of 1.e [2, 14]: 0% | conversion % of 2.e [2, 14]: 0% | conversion % of 1.e ([2]; substrate menthylacetate, 1. enantiomer (+)): 0% | conversion % of 2.e ([2]; substrate menthylacetate, 2.e. (−)): 0% | stability under alkaline conditions, in words [3]: extremely stable with little loss of activity | thermal stability, in words ([4]; incubated for at least 60 minutes at 40° C.): without a major loss of activity | thermal stability, in words ([4]; incubation at temperatures above 45° C. for more than 60 minutes (data not shown)): rapid inactivation | effect on activity, in words ([5]; Ca^2+, Cu2+, Mg^2+, Zn^2+, Rb^2+ and EDTA): inhibitory effect | stimulation of catalytic activity ([5]; in the presence of Co^2+): about 130% | specific activity ([6]; substrate triacetin (C2)): 147.5 U/mg | specific activity ([6]; substrate tributyrin (C4)): 167.5 U/mg | Residual activity after 1 h incubation in the presence of solvent ([7]; 15% (v/v) Acetone): 152% | Residual activity after 1 h incubation in the presence of solvent ([7]; 15% (v/v) Acetonitrile): 110% | Residual activity after 1 h incubation in the presence of solvent ([7]; 15% (v/v) DMSO): 102% | Residual activity after 1 h incubation in the presence of solvent ([7]; 15% (v/v) Dimethylformamid): 125% | Residual activity after 1 h incubation in the presence of solvent ([7]; 15% (v/v) Isopropanol): 155% | Residual activity after 1 h incubation in the presence of solvent ([7]; 15% (v/v) Methanol): 111% | Residual activity after 1 h incubation in the presence of solvent ([7]; 30% (v/v) Acetone): 155% | Residual activity after 1 h incubation in the presence of solvent ([7]; 30% (v/v) Acetonitrile): 87% | Residual activity after 1 h incubation in the presence of solvent ([7]; 30% (v/v) DMSO): 104% | Residual activity after 1 h incubation in the presence of solvent ([7]; 30% (v/v) Dimethylformamid): 128% | Residual activity after 1 h incubation in the presence of solvent ([7]; 30% (v/v) Isopropanol): 117% | Residual activity after 1 h incubation in the presence of solvent ([7]; 30% (v/v) Methanol): 130% | activity in the presence of solvent, levels up to ([7]; acetone): ≤ 155% | activity in the presence of solvent, levels up to ([7]; dimethylformamide): up to 128% | specific activity ([8]; substrate pNP-butyrate (C4)): 513.6 U/mg | specific activity ([8]; substrate pNP-caproate (C6)): 425.7 U/mg | specific activity ([8]; substrate pNP-decanoate (C10)): 0 U/mg | specific activity ([8]; substrate pNP-octanoate (C8)): 3.6 U/mg | specific activity ([8]; substrate pNP-palmitate (C16)): 0 U/mg | specific activity ([8]; substrate pNP-valerate (C5)): 425.7 U/mg
